Reference: patent publication US20150050213A1, “COMPOSITIONS AND METHODS FOR IMAGING INFLAMMATION OF TRAUMATIC BRAIN INJURY” (University of Virginia Patent Foundation, priority 2013, published 2015)

How the values were obtained:
FPR = target: T1, FPR (Homo sapiens, UniProt P21462); settings: human neutrophils; Locke et al. 2009; cited from earlier work
T1 construct: endogenous in cells; host or cells: human neutrophils
T1 sequence (P21462 1-350): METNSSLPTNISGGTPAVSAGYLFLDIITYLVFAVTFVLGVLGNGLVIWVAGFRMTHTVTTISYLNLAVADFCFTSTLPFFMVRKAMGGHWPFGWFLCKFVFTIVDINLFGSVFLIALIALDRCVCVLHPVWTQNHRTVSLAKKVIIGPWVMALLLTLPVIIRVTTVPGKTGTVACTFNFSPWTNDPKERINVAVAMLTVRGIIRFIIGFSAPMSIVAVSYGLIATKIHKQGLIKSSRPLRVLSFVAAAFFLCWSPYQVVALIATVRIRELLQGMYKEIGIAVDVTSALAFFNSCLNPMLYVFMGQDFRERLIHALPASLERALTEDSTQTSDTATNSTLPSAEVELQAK

[1] = target: T2, neutrophil N-formylpeptide receptor (Homo sapiens, UniProt P21462); settings: reported in the literature; cited from earlier work
T2 sequence (P21462 1-350): T1 sequence (P21462 1-350)

[2] = reported; poor imaging quality due to lipophilicity; cited from earlier work
infiltrating neutrophils [3] = experiment: neutrophil co-localization immunohistochemistry after CCI TBI; type: in vivo; settings: CCI TBI rats, 12 hours post-injury
Method: Neutrophil co-localization: Rats underwent CCI injury as described above and were immediately injected with cFLFLF-PEG-Cy5 through a tail vein catheter. Animals were sacrificed 12 hours post-injection and perfused with 200 cc of a 10% sucrose wash and 200 cc of 4% paraformaldehyde. After four hours, animals were perfused with a 30% sucrose cryoprotectant. Brains were then removed and sectioned at a thickness of […]. Sections were incubated in rabbit anti-rat neutrophil elastase (abcam 21595) at a dilution of 1:200 overnight at 4° C. Next, sections were washed three times in PBS and then incubated in alexa fluor 488 goat anti-rabbit antibody at a 1:200 dilution at room temperature for two hours. Sections were washed three times in PBS. Vectashield mounting medium with DAPI was applied to each section with a cover slip. Slides were assessed with a Zeiss Axioimager Z1 microscope equipped with the Apotome module. Photomicrographs were acquired using the Zeiss Zen 2011 software (FIG. 2).

infiltrating neutrophils [4] = tested on: infiltrating neutrophils; set-up: species or system Sprague-Dawley rats; settings: rat, in vivo
Method: Sprague-Dawley rats (N=3/experimental group) underwent moderate-severe experimental controlled cortical impact (CCI) trauma brain injury (TBI) or SHAM preparation. Animals were sacrificed 12, 24, or 48 hours post-injury, a tail vein catheter was inserted 12 hr prior to sacrifice, and each animal received a 2 mCi dose of cFLFLF-PEG-^64Cu. Radiopharmaceutical was allowed to circulate for 12 hrs prior to sacrifice. Brains were removed and unfixed, […] frozen sections were collected on a Leica CM3050S cryostat. Sections were collected onto slides and placed on radiosensitive FujiFilm SR imaging plates for 12 hours. Each screen was read with a GE Typhoon FLA9000 phosphor imager at a pixel size of […]. Average intensity values from seven ROIs (FIG. 5B-5G) were measured from 20 brain sections that included the entirety of the contusion volume. Values were normalized to the corrected dose of radiation and animal body weight. Average intensity values of each ROI were compared to the contralateral anatomical region in each of the SHAM, 12, 24 hour, and 48 hour experimental groups. Phosphor imaging is a standard technique for determining whether a labeled ligand is suitable for PET imaging and positive results are an indicator that the labeled ligand is indeed useful for PET imaging.

[5] = target: T3, neutrophil receptor (formyl peptide receptor, FPR) (Homo sapiens, UniProt P21462); settings: human neutrophils; Zhang et al. 2007; cited from earlier work
T3 construct: endogenous in cells; host or cells: human neutrophils
T3 sequence (P21462 1-350): T1 sequence (P21462 1-350)

neutrophils = settings: superoxide stimulation assays; Locke et al.; cited from earlier work
[6] = mouse, in vivo; cited from earlier work

cF(D)LF(D)LF [cFLFLF]
Kd (FPR): 2 nM
affinity for the neutrophil N-formylpeptide receptor [1]: high affinity
liver uptake [2]: high liver uptake

cinnamoyl-F(D)LF(D)LFK-polyethylene glycol [cFLFLF-PEG]
co-localization with neutrophil markers (infiltrating neutrophils [3]): localizes to infiltrating neutrophils within brain parenchyma

cinnamoyl-F(D)LF(D)LFK-polyethylene glycol-DOTA-64Cu [cFLFLF-PEG-^64Cu]
post-injury time point of most prominent uptake (infiltrating neutrophils [4]): 12 h
time of statistically significant peak uptake, ratio ipsilateral to contralateral, caudate and putamen (infiltrating neutrophils [4]): 12 h
time of statistically significant peak uptake, ratio ipsilateral to contralateral, corpus callosum (infiltrating neutrophils [4]): 12 h
time of statistically significant peak uptake, ratio ipsilateral to contralateral, cortex (infiltrating neutrophils [4]): 12 and 24 hour
time of statistically significant peak uptake, ratio ipsilateral to contralateral, hemisphere (infiltrating neutrophils [4]): 12 h
time of statistically significant peak uptake, ratio ipsilateral to contralateral, hippocampus (infiltrating neutrophils [4]): 12 h
uptake within cerebrospinal fluid (CSF) in the ventricles (infiltrating neutrophils [4]): intense uptake
Kd [5]: 5.7 nM
Kd (FPR): 17.7 nM
biologic activity toward neutrophils (neutrophils): no biologic activity toward neutrophils
mean biologic half-life [6]: 55±8 min
